As a reminder, the Kd is the free concentration of one partner at which half of the binding sites on the other are occupied at equilibrium, for simple one-to-one binding. In general, koff refers to a measure of how fast the partners let go of each other. By kon is commonly meant the rate constant with which the complex forms.

Results on six molecules are retold here after patent publication US20130230533A1 (Regeneron, published 2013).

The target of one experiment is T1, Dimeric human CD48-mFc (human).
T1 construct: the whole entry is the construct; also called hCD48-mFc
T1 chain: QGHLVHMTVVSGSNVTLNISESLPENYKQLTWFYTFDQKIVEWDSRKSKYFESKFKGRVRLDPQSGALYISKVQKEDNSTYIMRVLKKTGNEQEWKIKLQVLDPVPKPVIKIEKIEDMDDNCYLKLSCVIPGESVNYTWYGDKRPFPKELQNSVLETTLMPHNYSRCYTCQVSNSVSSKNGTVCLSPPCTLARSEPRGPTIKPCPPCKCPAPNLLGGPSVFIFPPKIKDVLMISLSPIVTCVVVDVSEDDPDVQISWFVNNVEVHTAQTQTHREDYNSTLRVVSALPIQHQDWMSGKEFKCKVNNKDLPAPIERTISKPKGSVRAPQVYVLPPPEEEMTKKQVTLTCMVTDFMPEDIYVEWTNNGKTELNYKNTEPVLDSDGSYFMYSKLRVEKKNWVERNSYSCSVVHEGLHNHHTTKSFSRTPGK
Description: SPR (Biacore), antibody captured by anti-Fc, CD48 in solution, 37 C. As to the method: (§1) Measurements were conducted on a T100-2 BIACORE™ instrument (Biacore Life Sciences division of GE Healthcare, Piscataway, N.J.). Antibodies (either with mouse Fc [designated “H2M” or “H3M”] or human IgG4 Fc [designated “H4H”]) were captured through an anti-Fc chip surface, and CD48 was flowed over the surface either in a monomeric (soluble CD48 expressed with a myc-myc-hexa-histidine C-terminal tag [mmH]) or dimeric (soluble CD48 expressed with a C-terminal Fc fusion [mFc]) format.
(§2) The soluble CD48 was applied to the flow cell in separate injections at different concentrations, and kinetic association (kₐ) and dissociation (kd) rate constants were determined by fits to the kinetic binding data using Biacore software. Binding dissociation equilibrium constants and dissociation half-times were calculated from the kinetic rate constants as: KD=kd/kₐ; t_{1/2}=(ln 2/kd) (units: ka=M⁻¹*s⁻¹; kd=s⁻¹; KD=M; T½=min) (Tables 3-6).
Background: Surface plasmon resonance follows binding to a sensor surface in real time, without labels.

In another experiment the target is T2, Monomeric human CD48-mmH (human).
T2 chain: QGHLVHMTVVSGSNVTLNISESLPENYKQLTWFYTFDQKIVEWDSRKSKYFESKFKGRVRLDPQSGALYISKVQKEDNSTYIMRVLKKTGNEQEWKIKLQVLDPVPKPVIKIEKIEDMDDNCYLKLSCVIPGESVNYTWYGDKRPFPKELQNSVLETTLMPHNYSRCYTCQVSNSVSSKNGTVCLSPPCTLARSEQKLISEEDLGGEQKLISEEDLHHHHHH
Described as above. As for the experimental part:
as §1, §2

For experiment [1], the target named is T3, Dimeric monkey CD48-mFc (monkey).
T3 construct: Soluble monkey CD48 with a C-terminal Fc fusion [mFc]; the whole entry is the construct
T3 chain: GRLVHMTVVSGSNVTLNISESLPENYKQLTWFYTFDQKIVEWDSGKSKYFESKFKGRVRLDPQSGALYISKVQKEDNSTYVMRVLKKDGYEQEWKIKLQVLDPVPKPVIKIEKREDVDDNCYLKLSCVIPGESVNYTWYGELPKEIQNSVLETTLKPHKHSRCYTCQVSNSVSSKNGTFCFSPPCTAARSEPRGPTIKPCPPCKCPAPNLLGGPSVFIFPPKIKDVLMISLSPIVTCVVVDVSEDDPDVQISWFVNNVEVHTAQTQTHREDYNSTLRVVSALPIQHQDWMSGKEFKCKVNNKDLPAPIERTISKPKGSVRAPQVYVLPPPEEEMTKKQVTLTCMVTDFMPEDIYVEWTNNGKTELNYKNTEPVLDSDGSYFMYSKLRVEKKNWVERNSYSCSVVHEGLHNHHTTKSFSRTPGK
The description is as above. As to the method: as §1, §2

In experiment [2] the target is T4, Monomeric monkey CD48-mmH (monkey).
T4 construct: Soluble monkey CD48 with a myc-myc-hexa-histidine C-terminal tag; the whole entry is the construct; also called mfCD48-mmH
T4 chain: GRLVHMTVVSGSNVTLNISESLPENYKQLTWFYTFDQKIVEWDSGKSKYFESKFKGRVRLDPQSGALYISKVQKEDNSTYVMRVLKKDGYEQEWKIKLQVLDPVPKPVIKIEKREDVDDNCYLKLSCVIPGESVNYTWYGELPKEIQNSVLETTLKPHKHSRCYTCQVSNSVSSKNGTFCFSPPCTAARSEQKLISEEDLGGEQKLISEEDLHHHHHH
Described as above. As for the experimental part:
as §1, §2

Experiment [3] deals with T3, Dimeric monkey CD48-mFc. Description: SPR (Biacore), antibody captured by anti-Fc, CD48 in solution, 25 C. As for the experimental part:
as §1, §2

Experiment [4] deals with T4, Monomeric monkey CD48-mmH. Described as above. As for the experimental part: as §1, §2

B1: H2M1811N (antibody, mouse IgG2, V domains shown)
VH: QVQLVQSGAEAREPGASVRVSCKASGYTFTDYFIHWVRQAPGQGLEWMGWINPNSGATNFAQKFQGRVTMTRDTSLITAYMDLSRLKSDDAAVFYCARDVDGSGWYLDFWGQGTLVTVSS
VL: EIVLTQSPATLSLSPGERATLSCRASQSVSIYLAWYQQKPGQAPRLLIYDASNRATGIPARFSGSGSGTDFTLTISRLEPEDFAVYYCQQRSDWPPSITFGQGTRLEIK
notes: Human variable domains, mouse IgG2 Fc (H2M)
In the experiment with Dimeric human CD48-mFc, B1 yielded a Kd of 0.966 nM, a T½ of 45 min, a koff of 0.000256 s⁻¹ and an association rate constant (kon) of 265000 M⁻¹ s⁻¹. For the same molecule, in the experiment with Monomeric human CD48-mmH, binding was put at a Kd of 22.7 nM, the T½ is 4 min, the koff turned out to be 0.00295 s⁻¹ and the kon is 130000 M⁻¹ s⁻¹.

B2: H4H1713N (antibody, V domains shown)
VH: QVQLVQSGAEVKKPGASVKVSCKASGHTFTNYYIHWVRQAPGQGLEWMGITNPNDGNTRYAQKFQGRISMTWDTSTSTVFMELSSLKSEDTAVYYCAGLRYWFFDLWGRGTPVTVSS
VL: DIQMTQSPSSVSASVGDRVTITCRASQDISSWLAWYQQKPGKAPNLLIFAASSLQSGVPSRFSGSGSGTDFTLTISSLQPEDFGTYYCQQTDNFPRTFGQGTKVEIN
notes: Human IgG4 Fc (H4H)
For the molecule B2, the Kd in the experiment with Dimeric human CD48-mFc was 0.036 nM; in the experiment with Monomeric human CD48-mmH it was 2.23 nM; with Dimeric monkey CD48-mFc [1] it was 0.3 nM; in experiment [2] it was 1.19 nM; with Dimeric monkey CD48-mFc [3], 0.281 nM; in experiment [4] it was 0.843 nM. The T½ with Dimeric human CD48-mFc turned out to be 255 min; with Monomeric human CD48-mmH it was 18 min; with Dimeric monkey CD48-mFc [1], 22 min; in experiment [2], 30 min; with Dimeric monkey CD48-mFc [3], 48 min; in experiment [4], 44 min. Further, the koff with Dimeric human CD48-mFc was determined as 4.53e-05 s⁻¹; with Monomeric human CD48-mmH, 0.000636 s⁻¹; with Dimeric monkey CD48-mFc [1], 0.000516 s⁻¹; in experiment [2], 0.000382 s⁻¹; with Dimeric monkey CD48-mFc [3], 0.000242 s⁻¹; in experiment [4] it was 0.000265 s⁻¹. The kon was 1.26e+06 M⁻¹ s⁻¹ with Dimeric human CD48-mFc; 286000 M⁻¹ s⁻¹ with Monomeric human CD48-mmH; 1.72e+06 M⁻¹ s⁻¹ in the experiment with Dimeric monkey CD48-mFc [1]; 320000 M⁻¹ s⁻¹ in experiment [2]; 861000 M⁻¹ s⁻¹ with Dimeric monkey CD48-mFc [3]; 315000 M⁻¹ s⁻¹ in experiment [4].

B3: H4H1707N (antibody, V domains shown)
VH: EGQLLESGGGLAQPGGSLRLSCAASGITFGRYAMSWVRQAPGKGLEWVSLISGSGGSTYHADSVKGRFTISRDNSKNTLYLQMNSLRAEDTAVYYCAIYNNYNWFDPWGQGTLVTVSS
VL: EIVLTQSPGTLSLSPGERATLSCRASQSVSSNYLAWYQQKPGQAPRLLIYDASSRATDIPDRFSGSGSGTDFTLTISRLEPEDFAVYYCQQYGSSPRTFGQGTKVEIK
notes: Human IgG4 Fc (H4H)
Regarding B3, the dissociation constant Kd in the experiment with Dimeric human CD48-mFc was found to be 0.0654 nM; in the experiment with Monomeric human CD48-mmH, 9.63 nM; with Dimeric monkey CD48-mFc [1], 3.2 nM; in experiment [2] it was 3.72 nM; with Dimeric monkey CD48-mFc [3] it was 1.48 nM; in experiment [4], 1.25 nM. Also, the T½ with Dimeric human CD48-mFc worked out at 180 min; in the experiment with Monomeric human CD48-mmH, 4 min; with Dimeric monkey CD48-mFc [1] it was 2 min; in experiment [2] it was 9 min; with Dimeric monkey CD48-mFc [3] it was 10 min; in experiment [4], 32 min. Further, the koff turned out to be 6.42e-05 s⁻¹ in the experiment with Dimeric human CD48-mFc; 0.00273 s⁻¹ with Monomeric human CD48-mmH; 0.00524 s⁻¹ with Dimeric monkey CD48-mFc [1]; 0.00122 s⁻¹ in experiment [2]; 0.00119 s⁻¹ with Dimeric monkey CD48-mFc [3]; 0.000362 s⁻¹ in experiment [4]. The kon came out at 981000 M⁻¹ s⁻¹ in the experiment with Dimeric human CD48-mFc; 284000 M⁻¹ s⁻¹ with Monomeric human CD48-mmH; 1.64e+06 M⁻¹ s⁻¹ with Dimeric monkey CD48-mFc [1]; 327000 M⁻¹ s⁻¹ in experiment [2]; 805000 M⁻¹ s⁻¹ in the experiment with Dimeric monkey CD48-mFc [3]; 289000 M⁻¹ s⁻¹ in experiment [4].

B4: H2M1764N (antibody, mouse IgG2, V domains shown)
VH: QVQLVESGGGVVQPGRSLRLSCAASGFTFSDYGMHWVRQAPGKGLEWVAVIWNDGSNKNYADSVKGRFSISSDSSKNTLYLHMNSLRAEDTAVYYCARSLYSTSPWYFDLWGRGTLVTVSS
VL: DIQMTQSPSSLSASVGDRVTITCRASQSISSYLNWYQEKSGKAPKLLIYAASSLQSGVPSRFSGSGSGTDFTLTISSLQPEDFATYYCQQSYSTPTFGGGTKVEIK
notes: as for B1
In the experiment with Dimeric human CD48-mFc, B4 came in with a Kd of 0.586 nM, a T½ of 28 min, a dissociation rate constant (koff) of 0.000412 s⁻¹ and a kon of 702000 M⁻¹ s⁻¹. Further, in the experiment with Monomeric human CD48-mmH, the Kd was found to be 94.7 nM, the T½ is 1 min, the koff was determined as 0.016 s⁻¹ and the kon amounted to 169000 M⁻¹ s⁻¹.

B5: H4H1763N (antibody, V domains shown)
VH: QIQLVQSGAEMKRPGTSVKVSCKASGYTFTSYGINWVRQAPGQGLEWMGWISAYNGDTNYAQKLQGRVTMTTDTSTTTAYMEVRSLRSDDTAVYYCARFLTGTKDYYYGMDVWGQGTTVTVSS
VL: DIQMTQSPSSLSASVGDRVTITCQASQDISNFLNWYQQKPGKAPDLLINDASILETGVPSRFSGSGSGTDFTLTINNLQPEDIATYYCQQYDNLPLTFGGGTKVEIK
notes: Human IgG4 Fc (H4H)
For B5, the Kd was found to be 0.0267 nM in the experiment with Dimeric human CD48-mFc; 12.7 nM in the experiment with Monomeric human CD48-mmH; 0.047 nM with Dimeric monkey CD48-mFc [1]; 2.49 nM in experiment [2]; 0.0519 nM in the experiment with Dimeric monkey CD48-mFc [3]; 2.34 nM in experiment [4]. The T½ in the experiment with Dimeric human CD48-mFc worked out at 184 min; with Monomeric human CD48-mmH it was 1 min; with Dimeric monkey CD48-mFc [1], 101 min; in experiment [2], 9 min; with Dimeric monkey CD48-mFc [3], 168 min; in experiment [4], 9 min. For the same molecule, the koff was 6.28e-05 s⁻¹ in the experiment with Dimeric human CD48-mFc; 0.0169 s⁻¹ with Monomeric human CD48-mmH; 0.000114 s⁻¹ with Dimeric monkey CD48-mFc [1]; 0.00133 s⁻¹ in experiment [2]; 6.88e-05 s⁻¹ in the experiment with Dimeric monkey CD48-mFc [3]; 0.00124 s⁻¹ in experiment [4]. For the same molecule, the kon in the experiment with Dimeric human CD48-mFc is 2.35e+06 M⁻¹ s⁻¹; with Monomeric human CD48-mmH, 1.33e+06 M⁻¹ s⁻¹; in the experiment with Dimeric monkey CD48-mFc [1], 2.42e+06 M⁻¹ s⁻¹; in experiment [2], 534000 M⁻¹ s⁻¹; in the experiment with Dimeric monkey CD48-mFc [3], 1.33e+06 M⁻¹ s⁻¹; in experiment [4], 527000 M⁻¹ s⁻¹.

B6: H3M1766N (antibody, V domains shown)
VH: EVQLVESGGGLAQPGGSLRLSCAASGFTFSSYEMNWVRQAPGKGLEWVSYITTSGSTIYYADSVKGRFTMSRDNAKKSLYLEMNSLRAEDTAVYYCAREECTNGVCYKDYQYYGMDVWGQGTTVTVSS
VL: DIQMTQSPSSVSASVGDRVTITCRASQNINTWLAWYQQKPGKVPKLLIYAASSLQSGVPSRFSGSGSGTDFTLTISSLQPEDFATYYCQQANSFPLTFGGGTKVEIK
notes: Human variable domains, mouse Fc (H3M); also called H2M1766N
In the experiment with Dimeric human CD48-mFc, B6 showed a dissociation constant (Kd) of 0.342 nM, a T½ of 36 min, a dissociation rate constant (koff) of 0.000324 s⁻¹ and a kon of 949000 M⁻¹ s⁻¹. In the experiment with Monomeric human CD48-mmH, this molecule registered a Kd of 3.84 nM, a T½ of 19 min, a koff of 0.00062 s⁻¹ and a kon of 161000 M⁻¹ s⁻¹.
